Source: article doi:10.1101/2021.12.02.470928

Key:
Experiment in all cases: BLI
[1] = biological target: biotinylated MYC(1-88 Y24A)
[2] = biological target: biotinylated MYC(1-88 P21A)
[3] = biological target: biotinyl-MB0 peptide (MYC 16-33) (UniProt P01106)
[4] = biological target: biotinylated MYC(1-88 F23A)
[5] = biological target: biotinylated MYC(1-88 Y22A)
[6] = biological target: biotinylated MYC(1-88ΔMB0) (UniProt P01106)

fold weakening of KD against wild-type MYC(1-88) [1]: > 5 fold
fold weakening of KD against wild-type MYC(1-88) [2]: > 5 fold
Kd [3]: 9.4 µM
fold weakening of KD against wild-type MYC(1-88) [4]: > 5 fold
fold weakening of KD against wild-type MYC(1-88) [5]: > 5 fold
Kd [6]: > 100 µM
B1: PNUTS(1-148), PNUTS amino-terminal domain (PAD) (domain or fragment)
chain: MGSGPIDPKELLKGLDSFLNRDGEVKSVDGISKIFSLMKEARKMVSRCTYLNILLQTRSPEILVKFIDVGGYKLLNNWLTYSKTTNNIPLLQQILLTLQHLPLTVDHLKQNNTAKLVKQLSKSSEDEELRKLASVLVSDWMAVIRSQS
